Assay [1] concerns the target T1, Soluble mouse EPOR chimera protein (R&D Systems) (mouse, UniProt P14753 25-249).
T1 construct: extracellular domain; Bought from R&D Systems; Amine-coupled to the SPR chip; also called erythropoietin receptor
T1 sequence (looked up): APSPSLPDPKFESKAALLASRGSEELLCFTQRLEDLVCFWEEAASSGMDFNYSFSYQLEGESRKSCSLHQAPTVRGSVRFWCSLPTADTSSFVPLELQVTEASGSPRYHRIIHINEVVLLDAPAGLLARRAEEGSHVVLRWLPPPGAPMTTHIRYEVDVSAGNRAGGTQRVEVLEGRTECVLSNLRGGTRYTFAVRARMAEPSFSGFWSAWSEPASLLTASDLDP
Description: SPR, mouse EPOR chimera amine-coupled to chip, peptide as analyte. Here is the method:
The SPR technique is to measure interactions between biomolecules in real-time by using an optical principle without specific labeling, and is a system analyzing affinity between two molecules and kinetics, i.e., an association rate (Ka) and a dissociation rate (Kd).
In detail, real-time SPR analysis was performed using Reichert SPR Biosensor SR 7500C instrument (Reichert Inc., NY, USA). Soluble mouse EPOR chimera proteins (R&D Systems, Minneapolis, Minn., USA) were covalently linked to a carboxymethylated dextran matrix-coated chip (BR-1005-39, Pharmacia Biosensor AB) by an amine coupling procedure using an amine coupling kit (BR-1000-50, GE Healthcare, USA) in accordance with manufacturer's instructions. […] For signal normalization, DMSO was applied at a flow rate of 5 μl/minute, and after each binding cycle, the sensor chip was regenerated by injecting 25 mM acetic acid at a flow rate of 20 μl/minute.
For orientation: Surface plasmon resonance follows binding to a sensor surface in real time, without labels.

Assay [2] has as its target T1, Soluble mouse EPOR chimera protein (R&D …). The assay is described as above. The source holds these as a separate data set.

Where two headings read alike, the source gives them in different places.

B1: ML5 (peptide)
peptide: SGLRSLTTLLRALG
notes: Synthetic monomer
A word on the Kd: it is the free concentration of one partner at which half of the binding sites on the other are occupied at equilibrium, for simple one-to-one binding. Low readings indicate a tighter complex, high ones a looser complex. Molecule B1 yielded a Kd in assay [1] of 0.329 µM.

B2: ML1-1 (peptide)
peptide: LQLHVLKRVSGLLSHTMLLKALG
notes: Synthetic monomer
Consider B2, for which binding in assay [1] was put at a Kd of 1.06 µM.

B3: ML3 (peptide)
peptide: TKVNFYAWKR
notes: Synthetic monomer
As to B3, the affinity in assay [1], expressed as Kd, was 14.6 µM.

B4: ML8 (peptide)
peptide: DKAVSGLRSLTTLLRAL
notes: Synthetic monomer
Regarding B4, binding in assay [1] was characterised by a dissociation constant (Kd) of 444 µM.

B5: ML1-C3 (peptide)
peptide: LQRHVKKRVKGLKSLTTLLRALG
notes: Charge-modified variant of ML1
B5 displayed a Kd in assay [2] of 9.83 µM.

B6: ML8-1 (peptide)
peptide: NKAVAGLRSLTVN
notes: Synthetic monomer
The molecule B6 gave a dissociation constant (Kd) in assay [1] of 2370 µM.

B7: ML5-1 (peptide)
peptide: AGLRSRAHLRRALA
notes: Synthetic monomer
In assay [1], B7 came in with a Kd of 78.3 µM.

B8: ML7-1 (peptide)
peptide: DEALDLEVDKAATGLRTLTTLIRAL
notes: Synthetic monomer
In assay [1], B8 yielded a Kd of 63.7 µM.

B9: ML3-1 (peptide)
peptide: TRVNYQAWKR
notes: Synthetic monomer
In turn, B9 came in with a Kd in assay [1] of 4.31 µM.

B10: ML6 (peptide)
peptide: SGLRSLTTLLRALGAQKEAI
notes: Synthetic monomer
With B10, the equilibrium dissociation constant (Kd) in assay [1] is 900 µM.

B11: ML1-H1 (peptide)
peptide: LQLHVLKAVSGLLTHTTLLKALG
B11 registered a Kd in assay [2] of 7.85 µM.

B12: ML1-H3 (peptide)
peptide: LQLHVLKAVAGLRTLAMIRRALA
B12 gave a dissociation constant Kd in assay [2] of 1.15 µM.

B13: ML6-1 (peptide)
peptide: KGLRSLISLLRALGAQKEAI
notes: Synthetic monomer
Consider B13, for which the Kd in assay [1] was 158 µM.

B14: ML4 (peptide)
peptide: DKAVSGLRSLTTLLRALGAQKEAI
notes: Synthetic monomer
In assay [1], B14 displayed a dissociation constant Kd of 10 µM.

B15: ML1-H2 (peptide)
peptide: LQLHVLKAVSGLLTLTMIRRALG
The molecule B15 returned a Kd in assay [2] of 0.307 µM.

B16: ML4-1 (peptide)
peptide: KKAVSGLKTLTHILRALGAQKEAI
notes: Synthetic monomer
As for B16, in assay [1], the Kd was about 39.3 µM.

B17: ML2 (peptide)
peptide: LHVDKAVSGLRSLTTLLRAL
notes: Synthetic monomer
B17 had a dissociation constant (Kd) in assay [1] of 273 µM.

B18: ML1 (peptide)
peptide: LQLHVDKAVSGLRSLTTLLRALG
notes: Synthetic monomer made by solid phase peptide synthesis; also called erythropoietin-derived peptide ML1
For the molecule B18, the dissociation constant (Kd) in assay [2] and in assay [1] was 6.46 µM in each case.

B19: ML1-C1 (peptide)
peptide: LDLEVDKAVSGLRSLTTLLRALG
notes: as for B5
Regarding B19, the affinity in assay [2], expressed as Kd, was 150 µM.

B20: ML1-C2 (peptide)
peptide: LQRHVDKRVSGLRSLTTLLRALG
notes: as for B5
B20 registered a Kd in assay [2] of 11.8 µM.

B21: ML2-1 (peptide)
peptide: RHVQKAESGLRSLTKLLREL
notes: Synthetic monomer
Molecule B21 came in with a Kd in assay [1] of 14.3 µM.

For the origin of these results see US20210340206A1 (SYLUS, published 2021).
